# Source: patent publication US20220411504A1 (Janssen / Centocor, published 2022)
# Where two headings read alike, the source gives them in different places.
# T1: recombinant human DLL3 (human, UniProt Q9NYJ7 27-492)
# T1 construct: also called DLL3 antigen; Delta-like protein 3
# T1 sequence: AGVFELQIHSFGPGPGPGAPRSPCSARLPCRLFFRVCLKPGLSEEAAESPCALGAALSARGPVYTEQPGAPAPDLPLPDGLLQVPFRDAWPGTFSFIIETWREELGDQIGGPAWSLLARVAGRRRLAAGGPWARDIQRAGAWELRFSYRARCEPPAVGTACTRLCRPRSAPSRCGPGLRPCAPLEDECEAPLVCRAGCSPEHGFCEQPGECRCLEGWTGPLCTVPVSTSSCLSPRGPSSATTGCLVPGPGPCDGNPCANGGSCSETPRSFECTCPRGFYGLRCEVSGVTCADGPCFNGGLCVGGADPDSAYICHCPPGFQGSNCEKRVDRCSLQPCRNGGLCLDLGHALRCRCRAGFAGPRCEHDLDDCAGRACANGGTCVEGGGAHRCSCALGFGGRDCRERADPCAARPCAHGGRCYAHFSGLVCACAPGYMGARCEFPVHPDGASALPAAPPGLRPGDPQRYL
# T2: DLL3 on tumor cells (SHP-77, HCC1833, G361) (human, UniProt Q9NYJ7 27-618)
# T2 sequence: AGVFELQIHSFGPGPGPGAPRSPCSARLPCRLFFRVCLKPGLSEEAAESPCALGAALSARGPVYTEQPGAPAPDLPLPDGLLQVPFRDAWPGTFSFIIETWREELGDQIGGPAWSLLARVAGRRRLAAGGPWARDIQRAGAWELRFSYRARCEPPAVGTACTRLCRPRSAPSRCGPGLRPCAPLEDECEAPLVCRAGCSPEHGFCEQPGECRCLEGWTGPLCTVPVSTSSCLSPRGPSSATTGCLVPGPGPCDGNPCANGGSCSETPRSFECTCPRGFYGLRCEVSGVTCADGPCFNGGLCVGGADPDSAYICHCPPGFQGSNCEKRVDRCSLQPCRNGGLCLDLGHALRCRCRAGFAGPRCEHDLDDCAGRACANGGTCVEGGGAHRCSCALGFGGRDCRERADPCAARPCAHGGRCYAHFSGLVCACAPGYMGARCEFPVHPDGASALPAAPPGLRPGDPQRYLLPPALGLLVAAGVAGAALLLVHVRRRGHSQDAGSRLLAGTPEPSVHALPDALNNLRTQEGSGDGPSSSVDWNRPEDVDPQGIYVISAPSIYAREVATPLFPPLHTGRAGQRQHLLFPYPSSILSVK
# Columns and labels:
# [1] = biological target: T3, HLA-G on cells (K562-HLA-G and HLA-G expressing tumor cells) (human); experiment: cell-based or functional assay
# [2] = biological target: T3, HLA-G on cells (K562-HLA-G and HLA-G …); experiment: K562-HLA-G cell binding (method not described)
# [3] = biological target: T4, Human CD3 epsilon (CD3ε) of the T cell receptor complex on cells (human, UniProt P07766 23-207); experiment: T cell binding (method not described)
# T4 construct: On Jurkat cells and primary human (pan) T cells; also called T-cell surface glycoprotein CD3 epsilon chain; T3E
# T4 sequence (P07766 23-207 limits assumed, one chain of several): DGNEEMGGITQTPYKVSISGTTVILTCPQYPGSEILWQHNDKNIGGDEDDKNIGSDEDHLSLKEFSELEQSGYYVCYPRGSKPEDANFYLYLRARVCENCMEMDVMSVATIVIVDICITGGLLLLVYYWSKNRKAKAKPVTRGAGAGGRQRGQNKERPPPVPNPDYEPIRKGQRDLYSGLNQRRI
# [4] = biological target: T4, Human CD3 epsilon (CD3ε) of the T cell …; experiment: flow cytometry on human pan T cells
# recombinant human DLL3 [5] = biological target: T1, recombinant human DLL3; experiment: SPR (Biacore T200), antibody captured by goat anti-Fc, DLL3 titrated
# [6] = biological target: T2, DLL3 on tumor cells (SHP-77, HCC1833, …); experiment: cell-based or functional assay
# recombinant human DLL3 [7] = biological target: T1, recombinant human DLL3; experiment: SPR (Biacore T200), antibody captured by goat anti-Fc, DLL3 titrated; remark: listed apart in the source
Binder,"Cytotoxicity, EC50 (T cell-mediated, NCI-H2009-b2m target cells, 72 hr) [1]",EC50 [2],EC50 [3],binding result [4],Kd (recombinant human DLL3 [5]),"Cytotoxicity, % lysis of SHP-77 cells (whole PBMCs, 1:1 ET, 30 nM) [6]",Kd (recombinant human DLL3 [7])
"HC3B125 (bispecific antibody, human IgG1, lambda, L234A L235A, No codon for C-terminal K447; also called CD3B376-Fab-Fc x MHGB732-LH-scFv-Fc; HCB125) heavy: QVQLQQSGPRLVRPSQTLSLTCAISGDSVFNNNAAWSWIRQSPSRGLEWLGRTYYRSKWLYDYAVSVKSRITVNPDTSRNQFTLQLNSVTPEDTALYYCARGYSSSFDYWGQGTLVTVSSASTKGPSVFPLAPSSKSTSGGTAALGCLVKDYFPEPVTVSWNSGALTSGVHTFPAVLQSSGLYSLSSVVTVPSSSLGTQTYICNVNHKPSNTKVDKKVEPKSCDKTHTCPPCPAPEAAGGPSVFLFPPKPKDTLMISRTPEVTCVVVSVSHEDPEVKFNWYVDGVEVHNAKTKPREEQYNSTYRVVSVLTVLHQDWLNGKEYKCKVSNKALPAPIEKTISKAKGQPREPQVYVYPPSREEMTKNQVSLTCLVKGFYPSDIAVEWESNGQPENNYKTTPPVLDSDGSFALVSKLTVDKSRWQQGNVFSCSVMHEALHNHYTQKSLSLSPG light: QSALTQPASVSGSPGQSITISCTGTSSNIGTYKFVSWYQQHPDKAPKVLLYEVSKRPSGVSSRFSGSKSGNTASLTISGLQAEDQADYHCVSYAGSGTLLFGGGTKLTVLGQPKAAPSVTLFPPSSEELQANKATLVCLISDFYPGAVTVAWKADSSPVKAGVETTTPSKQSNNKYAASSYLSLTPEQWKSHRSYSCQVTHEGSTVEKTVAPTECS scFv: DIVMTQSPDSLAVSLGERATINCKSSQSVLHSSNNKNYLTWFQQKPGQPPKLLIYWASTRESGVPDRFSGSGSGTDFTLTISSLQAEDVAVYYCHQYYSTPPTFGQGTKVEIKGGSEGKSSGSGSESKSTGGSQVQLQQSGPGLVKPSQTLSLTCAISGDSVSSNSAAWNWIRQSPSRGLEWLGRTYYRSKWYNDYAVSVKSRITINPDTSKNQISLQLNSVTPEDTAVYYCAGDRRYGIVGLPFAYWGQGTLVTVSSEPKSSDKTHTCPPCPAPEAAGGPSVFLFPPKPKDTLMISRTPEVTCVVVSVSHEDPEVKFNWYVDGVEVHNAKTKPREEQYNSTYRVVSVLTVLHQDWLNGKEYKCKVSNKALPAPIEKTISKAKGQPREPQVYVLPPSREEMTKNQVSLLCLVKGFYPSDIAVEWESNGQPENNYLTWPPVLDSDGSFFLYSKLTVDKSRWQQGNVFSCSVMHEALHNHYTQKSLSLSPG",0.0565 nM,12 nM,60 nM,,,,
"D3C3B80 (bispecific antibody, human IgG1, lambda, L234A L235A, also called C3C3B80) scFv: DIQMTQSPSSLSASVGDRVTITCRASQGISNYLAWFQQKPGKAPKSLIYAASSLQSGVPSKFSGSGSGTDFTLTISSLQPEDFATYYCQQYNSYPYTFGQGTKLEIKGGSEGKSSGSGSESKSTGGSQVQLVQSGAEVKKPGASVKVSCKASGQTFTNYYIHWVRQAPGQGLEWMGIINPSGGSTSYAQKLQGRMTMTRDTSTSTVYMELSSLRSEDTAVYFCARQGPFIGDAFDIWGQGTTVTVSSEPKSSDKTHTCPPCPAPEAAGGPSVFLFPPKPKDTLMISRTPEVTCVVVSVSHEDPEVKFNWYVDGVEVHNAKTKPREEQYNSTYRVVSVLTVLHQDWLNGKEYKCKVSNKALPAPIEKTISKAKGQPREPQVYVLPPSREEMTKNQVSLLCLVKGFYPSDIAVEWESNGQPENNYLTWPPVLDSDGSFFLYSKLTVDKSRWQQGNVFSCSVMHEALHNHYTQKSLSLSPGK heavy: QVQLQQSGPRLVRPSQTLSLTCAISGDSVFNNNAAWSWIRQSPSRGLEWLGRTYYRSKWLYDYAVSVKSRITVNPDTSRNQFTLQLNSVTPEDTALYYCARGYSSSFDYWGQGTLVTVSSASTKGPSVFPLAPSSKSTSGGTAALGCLVKDYFPEPVTVSWNSGALTSGVHTFPAVLQSSGLYSLSSVVTVPSSSLGTQTYICNVNHKPSNTKVDKKVEPKSCDKTHTCPPCPAPEAAGGPSVFLFPPKPKDTLMISRTPEVTCVVVSVSHEDPEVKFNWYVDGVEVHNAKTKPREEQYNSTYRVVSVLTVLHQDWLNGKEYKCKVSNKALPAPIEKTISKAKGQPREPQVYVYPPSREEMTKNQVSLTCLVKGFYPSDIAVEWESNGQPENNYKTTPPVLDSDGSFALVSKLTVDKSRWQQGNVFSCSVMHEALHNHYTQKSLSLSPGK light: QSALTQPASVSGSPGQSITISCTGTSSNIGTYKFVSWYQQHPDKAPKVLLYEVSKRPSGVSSRFSGSKSGNTASLTISGLQAEDQADYHCVSYAGSGTLLFGGGTKLTVLGQPKAAPSVTLFPPSSEELQANKATLVCLISDFYPGAVTVAWKADSSPVKAGVETTTPSKQSNNKYAASSYLSLTPEQWKSHRSYSCQVTHEGSTVEKTVAPTECS",,,,binds,0.033 nM,,
"HC3B258 (bispecific antibody, human IgG1, lambda, L234A L235A, Differs from HC3B125 only by a codon for the C-terminal lysine K447, which is processed; also called CD3B376-Fab-Fc x MHGB732-LH-scFv-Fc (with K447 codon)) heavy: QVQLQQSGPRLVRPSQTLSLTCAISGDSVFNNNAAWSWIRQSPSRGLEWLGRTYYRSKWLYDYAVSVKSRITVNPDTSRNQFTLQLNSVTPEDTALYYCARGYSSSFDYWGQGTLVTVSSASTKGPSVFPLAPSSKSTSGGTAALGCLVKDYFPEPVTVSWNSGALTSGVHTFPAVLQSSGLYSLSSVVTVPSSSLGTQTYICNVNHKPSNTKVDKKVEPKSCDKTHTCPPCPAPEAAGGPSVFLFPPKPKDTLMISRTPEVTCVVVSVSHEDPEVKFNWYVDGVEVHNAKTKPREEQYNSTYRVVSVLTVLHQDWLNGKEYKCKVSNKALPAPIEKTISKAKGQPREPQVYVYPPSREEMTKNQVSLTCLVKGFYPSDIAVEWESNGQPENNYKTTPPVLDSDGSFALVSKLTVDKSRWQQGNVFSCSVMHEALHNHYTQKSLSLSPG light: QSALTQPASVSGSPGQSITISCTGTSSNIGTYKFVSWYQQHPDKAPKVLLYEVSKRPSGVSSRFSGSKSGNTASLTISGLQAEDQADYHCVSYAGSGTLLFGGGTKLTVLGQPKAAPSVTLFPPSSEELQANKATLVCLISDFYPGAVTVAWKADSSPVKAGVETTTPSKQSNNKYAASSYLSLTPEQWKSHRSYSCQVTHEGSTVEKTVAPTECS scFv: DIVMTQSPDSLAVSLGERATINCKSSQSVLHSSNNKNYLTWFQQKPGQPPKLLIYWASTRESGVPDRFSGSGSGTDFTLTISSLQAEDVAVYYCHQYYSTPPTFGQGTKVEIKGGSEGKSSGSGSESKSTGGSQVQLQQSGPGLVKPSQTLSLTCAISGDSVSSNSAAWNWIRQSPSRGLEWLGRTYYRSKWYNDYAVSVKSRITINPDTSKNQISLQLNSVTPEDTAVYYCAGDRRYGIVGLPFAYWGQGTLVTVSSEPKSSDKTHTCPPCPAPEAAGGPSVFLFPPKPKDTLMISRTPEVTCVVVSVSHEDPEVKFNWYVDGVEVHNAKTKPREEQYNSTYRVVSVLTVLHQDWLNGKEYKCKVSNKALPAPIEKTISKAKGQPREPQVYVLPPSREEMTKNQVSLLCLVKGFYPSDIAVEWESNGQPENNYLTWPPVLDSDGSFFLYSKLTVDKSRWQQGNVFSCSVMHEALHNHYTQKSLSLSPG",,11 nM,60 nM,,,,
"DL3B585 (bispecific antibody, human IgG1, lambda, L234A L235A, also called CD3B376-Fab; DL3B279-LH-scFv) scFv: DIQMTQSPSSLSASVGDRVTITCRASQGISNYLAWFQQKPGKAPKSLIYAASSLQSGVPSKFSGSGSGTDFTLTISSLQPEDFATYYCQQYNSYPYTFAQGTKLEIKGGSEGKSSGSGSESKSTGGSQVQLVQSGAEVKKPGASVKVSCKASGNTFTNYYIHWVRQAPGQGLEWMGIINPSGGSTSYAQKLQGRMTMTRDTSTSTVYMELSSLRSEDTAVYFCARQGPFIGDAFDIWGQGTMVTVSSEPKSSDKTHTCPPCPAPEAAGGPSVFLFPPKPKDTLMISRTPEVTCVVVSVSHEDPEVKFNWYVDGVEVHNAKTKPREEQYNSTYRVVSVLTVLHQDWLNGKEYKCKVSNKALPAPIEKTISKAKGQPREPQVYVLPPSREEMTKNQVSLLCLVKGFYPSDIAVEWESNGQPENNYLTWPPVLDSDGSFFLYSKLTVDKSRWQQGNVFSCSVMHEALHNHYTQKSLSLS heavy: QVQLQQSGPRLVRPSQTLSLTCAISGDSVFNNNAAWSWIRQSPSRGLEWLGRTYYRSKWLYDYAVSVKSRITVNPDTSRNQFTLQLNSVTPEDTALYYCARGYSSSFDYWGQGTLVTVSSASTKGPSVFPLAPSSKSTSGGTAALGCLVKDYFPEPVTVSWNSGALTSGVHTFPAVLQSSGLYSLSSVVTVPSSSLGTQTYICNVNHKPSNTKVDKKVEPKSCDKTHTCPPCPAPEAAGGPSVFLFPPKPKDTLMISRTPEVTCVVVSVSHEDPEVKFNWYVDGVEVHNAKTKPREEQYNSTYRVVSVLTVLHQDWLNGKEYKCKVSNKALPAPIEKTISKAKGQPREPQVYVYPPSREEMTKNQVSLTCLVKGFYPSDIAVEWESNGQPENNYKTTPPVLDSDGSFALVSKLTVDKSRWQQGNVFSCSVMHEALHNHYTQKSLSLSPG light: QSALTQPASVSGSPGQSITISCTGTSSNIGTYKFVSWYQQHPDKAPKVLLYEVSKRPSGVSSRFSGSKSGNTASLTISGLQAEDQADYHCVSYAGSGTLLFGGGTKLTVLGQPKAAPSVTLFPPSSEELQANKATLVCLISDFYPGAVTVAWKADSSPVKAGVETTTPSKQSNNKYAASSYLSLTPEQWKSHRSYSCQVTHEGSTVEKTVAPTECS",,,,binds,0.024 nM,58.1%,0.024 nM
